1 protein from article PMC8774185, “Open-Bundle Structure as the Unfolding Intermediate of Cytochrome c′ Revealed by Small Angle Neutron Scattering” (Biomolecules, 2022) can be followed below.

Data set [1] deals with the molecule itself. The experiment in a line: small-angle neutron scattering (SANS); 5.3 mg/mL Cyt c′ in D2O, 20 mM phosphate buffer, pD 9.6; KWS-1 beam line; Rg and curve compared with those of the crystal dimer; MW ratio from I(0)/C against the pD 1.7 sample; dimer to monomers.
Data set [2] concerns the molecule itself. The experiment in a line: small-angle neutron scattering (SANS); 5.5 mg/mL Cyt c′ in D2O, 20 mM phosphate buffer, pD 6.4; KWS-1 beam line; Rg and curve compared with those of the crystal dimer; MW ratio from I(0)/C against the pD 1.7 sample; dimer to monomers.

Several values for one entry are separate records, joined by “and”; a condition that tells them apart may be missing. Equal values may be shown once.

B1: Cytochrome c′ from Alcaligenes xylosoxidans NCIMB 11015 (natural protein, UniProt P00138 1-127, looked up)
chain: QFAKPEDAVKYRQSALTLMASHFGRMTPVVKGQAPYDAAQIKANVEVLKTLSALPWAAFGPGTEGGDARPEIWSDAASFKQKQQAFQDNIVKLSAAADAGDLDKLRAAFGDVGASCKACHDAYRKKK
modifications: heme prosthetic group embedded in the C-terminal region
notes: Cytochrome c′ (c-type cytochrome, four-α-helix bundle) of Alcaligenes xylosoxidans NCIMB 11015; helices A(Ala3-Lys31), B(Asp37-Phe59), C(Ala76-Asp98), D(Asp103-Arg124); His120 axial ligand; crystal structures PDB 4WGZ and 4WGY are of the same protein; also called Cyt c′; Cyt c'
One may read the stoichiometry N as a count of units in the complex or per binding partner. As for B1, the “stoichiometry N” value was 1.9 and 1.8 in data set [1]; 2.1 and 2 in data set [2].
